Data taken from article PMC8130932 (PLoS Pathogens, 2021).

B1: FM 1A (antibody, V domains shown)
VH: EVQLLESGGGVVQPGRSLRLSCAASGFTFSSYGMHWVRQAPGKGLEWVAVIWYDGSNKYYADSVKGRFTISRDNSKNTLYLQMNSLRAEDTAVYYCAREGAVGATRGFDYWGQGTLVTVSS
VL: SYELTQPPSVSVAPGQTARITCGGNNIGSKSVHWYQQKPGQAPVLVVYDDSDRPSGIPERFSGSNSGNTATLTISRVEAGDEADYYCQVWDSSSDQGVFGGGTKLTVL
notes: source: HEK293T, transfected; culture supernatant or purified
B2: FN 8C (antibody, V domains shown)
VH: QVQLVESGGGVVQPGRSLRLSCAASGFTFSSYGMHWVRQAPGKGLEWVAVISYDGSNKYYADTVKGRFTISRDNSKNTLYLQMNSLRAEDTAVYYCARERTYYDILTGYRHYYGMDVWGQGTTVTVSS
VL: SYELTQPPSVSVAPGQTARITCGGNNIGSKSVHWYQQKPGQAPVLVVYDDSDRPSGIPERFSGSNSGNTATLTISRVEAGDEADYYCQVWDSSSDHWVFGGGTKLTVL
notes: as for B1
B3: FG 12C (antibody, V domains shown)
VH: EVQLVESGGGLVQPGRSLRLSCAASGFTFDDYAMHWVRQAPGKGLEWVSGISWNSGSIGYADSVKGRFTISRDNAKNSLYLQMNSLRAEDTALYYCAKDMRVHDYGDYYFDYWGQGTLVTVSS
VL: SYELTQPPSVSVAPGKTARITCGGNNIGSKSVHWYQQKPGQAPVLVIYYDSDRPSGIPERFSGSNSGNTATLTISRVEAGDEADYYCQVWDSSSDHPVFGGGTKLTVL
notes: as for B1
B4: FD 11D (antibody, V domains shown)
VH: EVQLVESGGGVVQPGRSLRLSCAASGFTFSSYGMHWVRQAPGKGLEWVAVISYDGSNKYYADSVKGRFTISRDNSKNTLYLQMNSLRAEDTAVYYCAKEGAGSGWYRHHKPGYYFDYWGQGTLVTVSS
VL: not shown
notes: as for B1
B5: FM 7B (antibody, V domains shown)
VH: EVQLVQSGAEVKKPGASVKVSCKASGYTFTSYAMHWVRQAPGQRLEWMGWINTGNGNTKYSQKFQGRVTITRDTSASTAYMELSSLRSEDTAVYYCARDPTYCSSTSCYPFSWFDPWGQGTLVTVSS
VL: NFMLTQPPSVSVAPGQTARITCGGNNIGSKSVHWYQQKPGQAPVLVVYDDSDRPSGIPERFSGSNSGNTATLTISRVEAGDEADYYCQVWDSTGDHSWVFGGGTKLTVL
notes: as for B1
B6: FD 11A (antibody, V domains shown)
VH: EVQLVESGGGVVQPGRSLRLSCAASGFTFSSYGMHWVRQAPGKGLEWVAVIWYDGSNKYYADSVKGRFTISRDNSKNTLYLQMNSLRAEDTAVYYCAKGPDILTGYYNYYYYGMDVWGQGTMVTVSS
VL: QSVLTQPPSVSGAPGQRVTISCTGSSSNIGAGYDVHWYQQLPGTAPKLLIYGNSNRPSGVPDRFSGSKSGTSASLAITGLQAEDEADYYCQSYDSSLSGFYVVFGGGTKLTVL
notes: as for B1
B7: FJ 10B (antibody, V domains shown)
VH: QVQLVQSGAEVKKPGESLRISCKGSGYSFTSYWISWVRQMPGKGLEWMGRIDPSDSYTNYSPSFQGHVTISADKSISTAYLQWSSLKASDTAMYYCARLDPRYGPDYYGMDVWGQGTTVTVSS
VL: AIRMTQSPSSLSASVGDRVTITCRASQSISSYLNWYQQKPGKAPKLLIHAASSLQSGVPSRFSGSGSGTDFTLTMSSLQPEDFATYYCQQSYSTPLTFGGGTKVEIR
notes: as for B1
B8: EZ 7B (antibody, V domains shown)
VH: EVQLVESSPGLVKPSETLSLTCTVSGGSISSYYWSWIRQPPGKGLEWIGYIYYSGSTNYNPSLKSRVTISVDTSKNQFSLKLSSVTAADTAVYYCARRVFGPVLPSKLGGSYWGGGAFDIWGQGTMVTVSS
VL: not shown
notes: as for B1
B9: FD 7C (antibody, V domains shown)
VH: QLQLQESGPGLVKPSETLSLTCTVSGGSISSYYWSWIRQPPGKGLEWIGYIYYSGSTNYNPSLKSRVTISVDTSKNQFSLKLSSVTAADTAVYYCARDYRFGELFGRFAWFDPWGQGTLVTVSS
VL: not shown
notes: as for B1
B10: FD 5D (antibody, V domains shown)
VH: EVQLVESGGGLVQPGGSLRLSCAASGFTFSSYSMNWVRQAPGKGLEWVSYISSSSSTIYYADPVKGRFTISRDNAKNSLYLQMNSLRAEDTAVYYCASPGGITAAGTSVLFGYYGMDVWGQGTMVTVSS
VL: not shown
notes: as for B1
B11: FD 11C (antibody, V domains shown)
VH: EVQLLESGPGLVKPSETLSLTCTVSGGSISSSSYYWGWIRQPPGKGLEWIGSIYYSGSTYYNPSLKSRVTISVDTSKNQFSLKLSSVTAADTAVYYCAREYYYGSETKKYYYYYGMDVWGQGTTVTVSS
VL: not shown
notes: as for B1
B12: FI 4A (antibody, V domains shown)
VH: EVQLVESGGGLVKPGGSLRLSCAASGFTFSRFSMNWVRQAPGKGLEWVSSISSSGSYIYFADSVKGRFTISRDNAKNSLYLQMNSLRAEDTAIYYCATYLFGDSHTYWGQGTLVTVSS
VL: QSVLTQPHSVSESPGKTVTISCTGSSGSIASNYVQWYQQRPGSAPTTVIYEDNQRPSGVPDRFSGSIDSSSNSASLTISGLKTEDEADYYCQSYDSSNLHWVFGGGTKLTVL
notes: as for B1
B13: FD 5E (antibody, V domains shown)
VH: EVQLVESGGVVVQPGGSLRLSCAASGFTFDDYAMHWVRQAPGKGLEWVSLISWDGGSTYYADSVKGRFTISRDNSKNSLYLQMNSLRAEDTALYYCAKDSVRFRYYYGMDVWGQGTTVTVSS
VL: EIVLTQSPATLSLSPGERATLSCRASQSVSSYLAWYQQKPGQAPRLLIYDASNRATGIPARFSGSGSGTDFTLTISSLEPEDFAVYYCQQRSNWPLTFGPGTKVDIK
notes: as for B1
B14: EW 9B (antibody, V domains shown)
VH: EVQLVQSGAEVKKPGASVKVSCKASGYTFTSYYMHWVRQAPGQGLEWMGIINPSGGSTSYAQKFQGRVTMTRDTSTSTVYMELSSLRSEDTAVYYCAREDGVVPAANLMISLEDYYYYGMDVWGQGTTVTVSS
VL: EIVLTQSPATLSLSPGERATLSCRASQSVSSYLAWYQQKPGQAPRLLIYDASNRATGIPARFSGSGSGTDFTLTISSLEPEDFAVYYCQQRSNWPLTFGGGTKVDIK
notes: as for B1
B15: FI 3A (antibody, V domains shown)
VH: EVQLLESGGGLIQPGGSLRLSCAASGFTVSSNYMSWVRQAPGKGLEWVSVIYSGGSTYYADSVKGRFTISRDNSKNTLYLQMNSLRAEDTAVYYCARDHVRPGMNIWGQGTMVTVSS
VL: not shown
notes: as for B1
B16: EZ 7A (antibody, V domains shown)
VH: EVQLVESGAEVKKPGESLKISCKGSGYSFTSYWIGWVRQMPGKGLEWMGIIYPGDSDTRYSPSFQGQVTISADKSISTAYLQWSSLKASDTAMYYCARGWVYRGFPYYGMDVWGQGTMVTVSS
VL: QSALTQPRSVSGSPGQSVTISCTGTSSDVGGYNYVSWYQQHPGKAPKLMIYDVSKRPSGVPDRFSGSKSGNTASLTISGLQAEDEADYYCCSYAGSYTLVFGGGTKLTVL
notes: as for B1
B17: FI 1C (antibody, V domains shown)
VH: EVQLVESGGGLVKPGGSLRLSCAASGFTFSDYYMSWIRQAPGKGLEWVSYISSSGSTIYYADSVKGRFTISRDNAKNSLYLQMNSLRAEDTAVYYCARRSNRFLIAFDIWGQGTMVTVSS
VL: QSALTQPASVSGSPGQTITISCTGTSSDVGGYNYVSWYQQHPGKAPKLMIYEVSNRPSGVSNRFSGSKSGNTASLTISGLQAEDEADYYCSSYTSSSTLVVFGGGTKLTVP
notes: as for B1
B18: FD 7D (antibody, V domains shown)
VH: EVQLVESGAEVKKPGESLRISCKGSGYSFTSYWISWVRQMPGKGLEWMGRIDPSDSYTNYSPSFQGHVTISADKSISTAYLQWSSLKASDTAMYYCARHSDCSSTSCYFVDAFDIWGQGTMVTVSS
VL: not shown
notes: as for B1
B19: FN 12A (antibody, V domains shown)
VH: QVQLVQSGAEVKKPGSSVKVSCKASGGTFSSYAISWVRQAPGQGLEWMGRIIPILGIANYAQKFQGRVTITADKSTSTAYMELSSLRSEDTAVYYCARSGCSSTSCPSNLYYYYYGMDVWGQGTTVTVSS
VL: QSVLTQPPSVSAAPGQKVTISCSGSSSNIGNNYVSWYQQLPGTAPKLLIYDNNKRPSGIPDRFSGSKSGTSATLGITGLQTGDEADYYCGTWDSSLSALVFGGGTKLTVL
notes: as for B1
B20: EY 6A (antibody, V domains shown)
VH: EVQLVESGGGVVQPGRSLRLSCAASAFTFSSYDMHWVRQAPGKGLEWVAVISYDGSNKYYADSVKGRFTISRDNSKNTLYLQMNSLRAEDTAVYYCAKDGGKLWVYYFDYWGQGTLVTVSS
VL: not shown
notes: as for B1
B21: FG 7A (antibody, V domains shown)
VH: EVQLVESGGGVVQPGRSLRLSCAASGFTFSSYAMHWVRQAPGKGLEWVAVISYDGSNKYYADSVKGRFTISRDNSKNTLYLQMNSLRAEDTAVYYCARSHSGSYRASLDYWGQGTTVTVSS
VL: not shown
notes: as for B1
B22: FD 1D (antibody, V domains shown)
VH: EVQLVESGGGVVQPGRSLRLSCAASGFTFSSYAMHWVRQAPGKGLEWVAVISYDGSNKYYADSVKGRFTISRDNSKNTLYLQMNSLRAEDTAVYYCARAGSGSYLNWFDPWGQGTLVTVSS
VL: EIVLTQSPATLSLSPGERATLSCRASQSVSSYLAWYQQKPGQAPRLLIYDASNRATGIPARFSGSGSGTDFTLTISSLEPEDFAVYYCQQRSNWPITFGQGTRLEIK
notes: as for B1

Legend:
[1] = target: T1, SARS-CoV-2 spike S2 subunit, recombinant (SARS-CoV-2, reference sequence, UniProt P0DTC2); experiment: ELISA
T1 construct: source: bought: Sino Biologicals, baculovirus-insect cells

[2] = target: T2, SARS-CoV-2 RBD (amino acids 340-538) on MDCK-SIAT1 cells (SARS-CoV-2 (so in the source)); experiment: flow cytometry on cells; conditions: one partner purified
T2 construct: also called MDCK-RBD; source: MDCK-SIAT1, stably transduced (lentiviral vector), on the cell surface

[3] = target: T3, SARS-CoV-2 NTD on MDCK-SIAT1 cells (SARS-CoV-2 (so in the source)); experiment: flow cytometry on cells; conditions: one partner purified
T3 construct: also called MDCK-NTD

[4] = target: T4, SARS-CoV-2 spike receptor-binding domain, recombinant (SARS-CoV-2, reference sequence, UniProt P0DTC2); experiment: ELISA
T4 construct: also called RBD; source: bought: Sino Biologicals, baculovirus-insect cells

[5] = target: SARS-CoV-2 nucleocapsid, recombinant (SARS-CoV-2, reference sequence, UniProt P0DTC9); experiment: ELISA

Binder	OD450 [1]	binding result [2]	binding result [3]	OD450 [4]	OD450 [5]
B1	0.88 OD450	–	–	–	–
B2	–	no binding	no binding	–	–
B3	–	no binding	no binding	–	–
B4	–	no binding	–	–	–
B5	–	binds	–	1.27 OD450	–
B6	–	binds	–	1.17 OD450	–
B7	–	binds	–	1.22 OD450	–
B8	–	–	–	–	1.01 OD450
B9	–	no binding	binds	–	–
B10	–	binds	–	1.19 OD450	–
B11	–	no binding	no binding	–	–
B12	–	binds	–	1.12 OD450	–
B13	–	no binding	no binding	–	–
B14	–	no binding	no binding	–	–
B15	–	binds	–	1.12 OD450	–
B16	–	binds	–	1.12 OD450	–
B17	–	binds	–	1.22 OD450	–
B18	–	no binding	no binding	–	–
B19	–	binds	no binding	1.33 OD450	–
B20	–	binds	–	1.18 OD450	–
B21	1.05 OD450	–	–	–	–
B22	1.06 OD450	no binding	no binding	–	–
